The values below come from US20230035659A1, “Compositions and Methods for TTR Gene Editing and Treating ATTR Amyloidosis Comprising a Corticosteroid or Use Thereof” (Intellia Therapeutics, Inc., priority 2019, published 2023).

Strand notation (5' to 3'): a small letter for the sugar, then the base; units joined by * are phosphorothioate-linked, units joined directly phosphodiester-linked; [ ] holds rarer units or linkages, { } end groups; capitals alone tell only the bases. m = 2'-O-methyl; r = 2'-OH (RNA)

B1: G000502: TTR Cyno specific sgRNA modified sequence, SEQ ID NO: 114; guide sequence of CR000689; cross homologous between mouse and cyno (nucleic acid)
guide: mA*mC*mA*rCrArArArUrArCrCrArGrUrCrCrArGrCrGrGrUrUrUrUrArGrAmGmCmUmAmGmAmAmAmUmAmGmCrArArGrUrUrArArArArUrArArGrGrCrUrArGrUrCrCrGrUrUrArUrCrAmAmCmUmUmGmAmAmAmAmAmGmUmGmGmCmAmCmCmGmAmGmUmCmGmGmUmGmCmU*mU*mU*mU
B2: G000480: TTR sgRNA modified sequence, Human, SEQ ID NO: 87; guide sequence of CR003353 (nucleic acid)
guide: mA*mA*mA*rGrGrCrUrGrCrUrGrArUrGrArCrArCrCrUrGrUrUrUrUrArGrAmGmCmUmAmGmAmAmAmUmAmGmCrArArGrUrUrArArArArUrArArGrGrCrUrArGrUrCrCrGrUrUrArUrCrAmAmCmUmUmGmAmAmAmAmAmGmUmGmGmCmAmCmCmGmAmGmUmCmGmGmUmGmCmU*mU*mU*mU
B3: G000486: TTR sgRNA modified sequence, Human, SEQ ID NO: 93; guide sequence of CR003339 (nucleic acid)
guide: mA*mC*mA*rCrArArArUrArCrCrArGrUrCrCrArGrCrArGrUrUrUrUrArGrAmGmCmUmAmGmAmAmAmUmAmGmCrArArGrUrUrArArArArUrArArGrGrCrUrArGrUrCrCrGrUrUrArUrCrAmAmCmUmUmGmAmAmAmAmAmGmUmGmGmCmAmCmCmGmAmGmUmCmGmGmUmGmCmU*mU*mU*mU
B4: G000494: TTR sgRNA modified sequence, Human, SEQ ID NO: 101; guide sequence of CR003360 (nucleic acid)
guide: mG*mU*mG*rArGrUrCrUrGrGrArGrArGrCrUrGrCrArUrGrUrUrUrUrArGrAmGmCmUmAmGmAmAmAmUmAmGmCrArArGrUrUrArArArArUrArArGrGrCrUrArGrUrCrCrGrUrUrArUrCrAmAmCmUmUmGmAmAmAmAmAmGmUmGmGmCmAmCmCmGmAmGmUmCmGmGmUmGmCmU*mU*mU*mU
B5: G000483: TTR sgRNA modified sequence, Human, SEQ ID NO: 90; guide sequence of CR005298 (nucleic acid)
guide: mU*mC*mC*rArCrUrCrArUrUrCrUrUrGrGrCrArGrGrArGrUrUrUrUrArGrAmGmCmUmAmGmAmAmAmUmAmGmCrArArGrUrUrArArArArUrArArGrGrCrUrArGrUrCrCrGrUrUrArUrCrAmAmCmUmUmGmAmAmAmAmAmGmUmGmGmCmAmCmCmGmAmGmUmCmGmGmUmGmCmU*mU*mU*mU
B6: G000570: TTR sgRNA modified sequence, Human, SEQ ID NO: 111; guide sequence of CR003347 (nucleic acid)
guide: mC*mA*mU*rUrGrArUrGrGrCrArGrGrArCrUrGrCrCrUrGrUrUrUrUrArGrAmGmCmUmAmGmAmAmAmUmAmGmCrArArGrUrUrArArArArUrArArGrGrCrUrArGrUrCrCrGrUrUrArUrCrAmAmCmUmUmGmAmAmAmAmAmGmUmGmGmCmAmCmCmGmAmGmUmCmGmGmUmGmCmU*mU*mU*mU
B7: G000499: TTR sgRNA modified sequence, Human, SEQ ID NO: 106; guide sequence of CR005303 (nucleic acid)
guide: mU*mG*mA*rArUrCrCrArArGrUrGrUrCrCrUrCrUrGrArGrUrUrUrUrArGrAmGmCmUmAmGmAmAmAmUmAmGmCrArArGrUrUrArArArArUrArArGrGrCrUrArGrUrCrCrGrUrUrArUrCrAmAmCmUmUmGmAmAmAmAmAmGmUmGmGmCmAmCmCmGmAmGmUmCmGmGmUmGmCmU*mU*mU*mU
B8: G000484: TTR sgRNA modified sequence, Human, SEQ ID NO: 91; guide sequence of CR003367 (nucleic acid)
guide: mA*mG*mA*rCrArCrCrArArArUrCrUrUrArCrUrGrGrArGrUrUrUrUrArGrAmGmCmUmAmGmAmAmAmUmAmGmCrArArGrUrUrArArArArUrArArGrGrCrUrArGrUrCrCrGrUrUrArUrCrAmAmCmUmUmGmAmAmAmAmAmGmUmGmGmCmAmCmCmGmAmGmUmCmGmGmUmGmCmU*mU*mU*mU
B9: G000567: TTR sgRNA modified sequence, Human, SEQ ID NO: 109; guide sequence of CR003352 (nucleic acid)
guide: mG*mA*mA*rArGrGrCrUrGrCrUrGrArUrGrArCrArCrCrGrUrUrUrUrArGrAmGmCmUmAmGmAmAmAmUmAmGmCrArArGrUrUrArArArArUrArArGrGrCrUrArGrUrCrCrGrUrUrArUrCrAmAmCmUmUmGmAmAmAmAmAmGmUmGmGmCmAmCmCmGmAmGmUmCmGmGmUmGmCmU*mU*mU*mU
B10: G000482: TTR sgRNA modified sequence, Human, SEQ ID NO: 89; guide sequence of CR003365 (nucleic acid)
guide: mU*mG*mU*rArGrArArGrGrGrArUrArUrArCrArArArGrGrUrUrUrUrArGrAmGmCmUmAmGmAmAmAmUmAmGmCrArArGrUrUrArArArArUrArArGrGrCrUrArGrUrCrCrGrUrUrArUrCrAmAmCmUmUmGmAmAmAmAmAmGmUmGmGmCmAmCmCmGmAmGmUmCmGmGmUmGmCmU*mU*mU*mU

In one data set the test system is TTR mRNA. The data set can be described thus: TTR mRNA knockdown (quantitative PCR) in primary human hepatocytes treated with LNPs. Type of data set: cell-based. The following applies: PHH; LNP dose 100 ng mRNA cargo; gRNA:mRNA 1:2; 96 h; single treatment; vs untreated control. The protocol: In one experiment, PHH were cultured and treated with LNPs comprising Cas9 mRNA (SEQ ID NO:1) and a gRNA of interest (See FIG. 29, Table 36), as described in Example 4. The LNPs were prepared using the cross-flow procedure described above and purified and concentrated using PD-10 columns and Amicon centrifugal filter units, respectively. The LNPs were formulated with an N:P ratio of 6.0 and contained Lipid A, Cholesterol, DSPC, and PEG2k-DMG in a 50:38:9:2 molar ratio, respectively. The LNPs comprised a gRNA:mRNA ratio of 1:2, and the cells were treated at a dose of 300 ng (with respect to the amount of mRNA cargo delivered).
(§1) Ninety-six (96) hours following LNP treatment (with biological triplicates for each condition), mRNA was purified from PHH cells using the Dynabeads mRNA DIRECT Kit (ThermoFisher Scientific) according to the manufacturer's protocol. Reverse Transcription (RT) was performed with Maxima reverse transcriptase (ThermoFisher Scientific) and a poly-dT primer. The resulting cDNA was purified with Ampure XP Beads (Agencourt). For Quantitative PCR, 2% of the purified cDNA was amplified with Taqman Fast Advanced Mastermix and 3 Taqman probe sets, TTR (Assay ID: Hs00174914_m1), GAPDH (Assay ID: Hs02786624_g1), and PPIB (Assay ID: Hs00168719_m1). The assays were run on the QuantStudio 7 Flex Real Time PCR System according to the manufacturer's instructions (Life Technologies). Relative expression of TTR mRNA was calculated by normalizing to the endogenous controls (GAPDH and PPIB) individually, and then averaged.
The groups in FIG. 29 and Table 36 are identified by the gRNA ID used in each LNP preparation.
In a separate experiment, TTR mRNA knockdown was evaluated following treatment with LNPs comprising G000480, G000486, and G000502. The LNPs were formulated and PHH were cultured and treated with the LNPs, each as described in the experiment above in this Example with the exception that the cells were treated at a dose of 100 ng (with respect to the amount of mRNA cargo delivered).
as §1, with “(single treatment” for “(with biological triplicates”, “the High Capacity cDNA Reverse Transcription Kit” for “Maxima reverse transcriptase”, “according to the manufacturer's instructions.” for “and a poly-dT primer. The resulting cDNA was purified with Ampure XP Beads (Agencourt).”, “the” for “the purified”
The groups in FIG. 30 and Table 37 are identified by the gRNA ID used in each LNP preparation.
In the case of B1, the “Avg % Knockdown (TTR mRNA)” value came to 90.94%.
In the case of B2, the “Avg % Knockdown (TTR mRNA)” value was determined as 95.61%.
Turning to B3, the “Avg % Knockdown (TTR mRNA)” value stood at 97.36%.

Still in this data set, the particulars now being: PHH; LNP dose 300 ng mRNA cargo; gRNA:mRNA 1:2; 96 h; biological triplicates; vs untreated control.
For B4, the “Avg % Knockdown (TTR mRNA)” value was determined as 91.15%.
Same read-out and setting: in the case of B5 it was 68.78%.
Still for that read-out and setting: in the case of B6 it was 93.38%; in that of B7, 91.38%; in that of B8, 75.22%.
On the same count and under the same terms, in the case of B9 it was 90.89%; in that of B2, 95.19%.
B10: the “Avg % Knockdown (TTR mRNA)” value is 82.31%.

For the next data set, the system named is TTR. The experiment in a line: TTR editing dose response (EC50, maximum editing) in primary human hepatocytes treated with LNP formulated U-depleted Spy Cas9 mRNA and sgRNAs. Type of data set: cell-based. The following applies: LNP formulated U-depleted Spy Cas9 mRNA and human specific sgRNAs, dose response. The protocol: Primary liver hepatocytes. Primary human liver hepatocytes (PHH) and primary cynomolgus liver hepatocytes (PCH) (Gibco) were cultured per the manufacturer's protocol (Invitrogen, protocol 11.28.2012). In brief, the cells were thawed and resuspended in hepatocyte thawing medium with supplements (Gibco, Cat. CM7000) followed by centrifugation at 100 g for 10 minutes for human and 80 g for 4 minutes for cyno. The supernatant was discarded and the pelleted cells resuspended in hepatocyte plating medium plus supplement pack (Invitrogen, Cat. A1217601 and CM3000). Cells were counted and plated on Bio-coat collagen I coated 96-well plates (ThermoFisher, Cat. 877272) at a density of 33,000 cells/well for human or 60,000 cells/well for cyno (or 65,000 cells/well when assaying effects on TTR protein, described further below). Plated cells were allowed to settle and adhere for 6 or 24 hours in a tissue culture incubator at 37° C. and 5% CO2 atmosphere. After incubation cells were checked for monolayer formation and media was replaced with hepatocyte culture medium with serum-free supplement pack (Invitrogen, Cat. A1217601 and CM4000).
For LNPs prepared using the cross-flow technique, the LNPs were formed by impinging jet mixing of the lipid in ethanol with two volumes of RNA solutions and one volume of water. The lipid in ethanol is mixed through a mixing cross with the two volumes of RNA solution. A fourth stream of water is mixed with the outlet stream of the cross through an inline tee. (See WO2016010840 FIG. 2.) The LNPs were held for 1 hour at room temperature, and further diluted with water (approximately 1:1 v/v). Diluted LNPs were concentrated using tangential flow filtration on a flat sheet cartridge (Sartorius, 100 kD MWCO) and then buffer exchanged by diafiltration into 50 mM Tris, 45 mM NaCl, 5% (w/v) sucrose, pH 7.5 (TSS). Alternatively, the final buffer exchange into TSS was completed with PD-10 desalting columns (GE). If required, formulations were concentrated by centrifugation with Amicon 100 kDa centrifugal filters (Millipore). The resulting mixture was then filtered using a 0.2 μm sterile filter. The final LNP was stored at 4° C. or −80° C. until further use.
Additional PCR was performed per the manufacturer's protocols (Illumina) to add chemistry for sequencing. The amplicons were sequenced on an Illumina MiSeq instrument. The reads were aligned to a reference genome (e.g., the human reference genome (hg38), the cynomologus reference genome (mf5), the rat reference genome (rn6), or the mouse reference genome (mm10)) after eliminating those having low quality scores. The resulting files containing the reads were mapped to the reference genome (BAM files), where reads that overlapped the target region of interest were selected and the number of wild type reads versus the number of reads which contain an insertion, substitution, or deletion was calculated.
The editing percentage (e.g., the “editing efficiency” or “percent editing” or “indel frequency”) is defined as the total number of sequence reads with insertions/deletions (“indels”) or substitutions over the total number of sequence reads, including wild type.
Lipid nanoparticle formulations of modified sgRNAs targeting human TTR and the cyno matched sgRNA sequences were tested on primary human hepatocytes and primary cyno hepatocytes in a dose response curve. Primary human and cyno hepatocytes were plated as described in Example 1. Both cell lines were incubated at 37° C., 5% CO2 for 24 hours prior to treatment with LNPs. The LNPs used in the experiments detailed in Tables 20-22 were prepared using the cross-flow procedure described above but purified using PD-10 columns (GE Healthcare Life Sciences) and concentrated using Amicon centrifugal filter units (Millipore Sigma), each containing the specified sgRNA and Cas9 mRNA (SEQ ID NO:1). […] LNPs were incubated in hepatocyte maintenance media containing 6% cyno serum at 37° C., 5% CO2 for 5 minutes. […]
In the case of B4, the “Max Editing” value came to 75.70%.
Regarding B5, the “Max Editing” value stood at 77.39%.
Regarding B6, the “Max Editing” value is 98.22%.
Take B7: the “Max Editing” value stood at 96.31%.
Regarding B8, the “Max Editing” value was found to be 94.14%.
As to B2, the “Max Editing” value was found to be 98.69%.
In the case of B10, the “Max Editing” value came out at 97.02%.

Still in this data set, the particulars now being: LNP with U-depleted Spy Cas9 mRNA and cyno specific sgRNA, 8 point 3-fold dose response starting at 300 ng mRNA, 72 hours.
Consider B1, for which the “Max Editing” value is listed as 91.5%.
